Data as given in patent publication US10590397B2 (priority 2017, dated 2020).
Residue numbers refer to the chain shown, from its start. Names and notes keep the numbering of the source. Values joined by “and” are separate entries in the source; they are usually repeats but may differ in a detail not shown here. Identical values can stand only once. Like-named read-outs stand apart in the source and are kept apart here.

B1: Os79 (protein, listed as Oryza sativa)
chain: MGSMSTPAASANGGQVLLLPFPAAQGHTNPMLQFGRRLAYHGLRPTLVTTRYVLSTTPPPGDPFRVAAISDGFDDASGMAALPDPGEYLRTLEAHGARTLAELLLSEARAGRPARVLVYDPHLPWARRVARAAGVATAAFLSQPCAVDLIYGEVCARRLALPVTPTDARGLYARGVLGVELGPDDVPPFVAAPELTPAFCEQSIEQFAGLEDDDDVLVNSFSDLEPKEAAYMESTWRAKTIGPSLPSFYLDDGRLRSNTAYGFNLFRSTVPCMEWLDKQPPRSVVLVSYGTVSTFDVAKLEELGNGLCNSGKPFLWVVRSNEEHKLSVQLRKKCEKRGLIVPFCPQLEVLAHKATGCFLSHCGWNSTLEAIVNGVPLVAMPHWADQPTISKYVESLWGMGVRVQLDKSGILQREEVERCIREVMDGDRKEDYRRNATRLMKKAKESMQEGGSSDKNIAEFAAKYSN
B2: Os79 Q202A (protein, listed as Oryza sativa)
chain: B1 chain with Q202A
B3: Os79 H122A/L123A (protein, listed as Oryza sativa)
chain: B1 chain with H122A, L123A
B4: Os79 H122A/L123G (protein, listed as Oryza sativa)
chain: B1 chain with H122A, L123G
B5: Os79 A384S (protein, listed as Oryza sativa)
chain: B1 chain with A384S

What was measured:
[1] = DON as substrate; Michlmayr, et al., 2015; cited from earlier work
[2] = type: biochemical, Fusarium
[3] = type: biochemical, Fusarium; remark: listed apart in the source

Molecule | KM value compared to WT Os79 [2] | Km [3] [µM] | other results
B1 | – | – | Km [1]: 230 µM; kcat [1]: 0.57 s⁻¹
B2 | no significant difference | – | –
B3 | – | 926 | kcat ([3]; 23° C.): 1.6 s⁻¹
B4 | – | 512 | Km ([2]; 23° C.): 2500 µM and 2510 µM
B5 | similar | – | –
